Laboratory results: PMC6415414

Conditions: N-glycosylation at N74

Substance | enzymatic_activity | stability_or_folding
Candida antarctica lipase B (CaLB): Asn74Ala, S. cerevisiae MTP culture supernatant, pNPB assay | no change, 94% relative hydrolytic activity | 
Candida antarctica lipase B (CaLB): Asn74Ala (CaLB-degl and CaLB-degl-lid), residual activity after 10 min heat incubation |  | decreases, >50% activity lost at 48 °C and almost inactive at 58 °C, vs 42% relative activity at 58 °C for wt
Candida antarctica lipase B (CaLB): Asn74Ser, S. cerevisiae MTP culture supernatant, pNPB assay | decreases | 
Candida antarctica lipase B (CaLB): Asn74Ala (CaLB-degl), ε-caprolactone polymerization in aqueous toluene | increases, Free enzyme: Mn 1100 to 1900 Da, Coligo 13% to 29% (factor 1.7). Immobilized: Mn 5200 to 6700 Da, Coligo 86% to 91%. | 
Candida antarctica lipase B (CaLB): Asn74Ala (CaLB-degl), purified free enzyme, pNPB assay | decreases, hydrolytic activity 10.49 to 7.57 µmol(min∙mg)−1 | 
